Substrate: CCCCCCCCCCCCCCCC(=O)Oc1ccc([N+](=O)[O-])cc1
Experiment: p-nitrophenol release, Lineweaver-Burk
Type: biochemical, Rhizopus microsporus
Conditions: emulsified substrate, 40°C, pH 8.5, printed Km unit is a misprint, printed kcat/Km 6.22 × 10^4 M^-1 s^-1 implies mM
Excerpt: p-nitrophenol release, Lineweaver-Burk on r27RCL

B1: r27RCL (Rhizopus microsporus var. chinensis) (protein)
chain: DTETVGGMTLDLPENPPPIPATSTAPSSDSGEVVTATAAQIKELTNYAGVAATAYCRSVVPGTKWDCKQCLKYVPDGKLIKTFTSLLTDTNGFILRSDAQKTIYVTFRGTNSFRSAITDMVFTFTDYSPVKGAKVHAGFLSSYNQVVKDYFPVVQDQLTAYPDYKVIVTGHSLGGAQALLAGMDLYQREKRLSPKNLSIYTVGCPRVGNNAFAYYVDSTGIPFHRTVHKRDIVPHVPPQAFGYLHPGVESWIKEDPADVQICTSNIETKQCSNSIVPFTSIADHLTYFGINEGSCL
notes: proRCL gene in pPIC9K, secreted from Pichia pastoris GS115, purified on SP-Sepharose and Phenyl-Sepharose
With B1 the kcat was 18.9 s⁻¹ and the kcat/Km was 62200 M⁻¹ s⁻¹.

Reference: PMC3503730, “Enhanced thermostability of a Rhizopus chinensis lipase by in vivo recombination in Pichia pastoris” (Microbial Cell Factories, 2012)
